Test results taken from patent US20040180375A1.

Columns and labels:
Experiment in all cases: cell-based or functional assay
[1] = biological target: human His6-Gαi2 (expressed in Sf9 cells) (human) (UniProt P04899)
[2] = biological target: GPA1(1-41)-Gα16(S270P) (GPA1-human Gα16 fusion construct) (yeast; human)
[3] = biological target: GPA1(1-41)-Gαi2 chimera (first 41 amino acids of yeast Gpa1 fused to amino acids 36-356 of human Gαi2) (yeast; human) (UniProt P08539)
[4] = biological target: GPA1(1-41)-Gαi3 (GPA1-human Gαi3 fusion construct) (yeast; human) (UniProt P08539)
rat Gαs (rat) = rat Gαs (rat) (UniProt P63095)
Chain of rat Gαs (rat) (P63095 whole entry): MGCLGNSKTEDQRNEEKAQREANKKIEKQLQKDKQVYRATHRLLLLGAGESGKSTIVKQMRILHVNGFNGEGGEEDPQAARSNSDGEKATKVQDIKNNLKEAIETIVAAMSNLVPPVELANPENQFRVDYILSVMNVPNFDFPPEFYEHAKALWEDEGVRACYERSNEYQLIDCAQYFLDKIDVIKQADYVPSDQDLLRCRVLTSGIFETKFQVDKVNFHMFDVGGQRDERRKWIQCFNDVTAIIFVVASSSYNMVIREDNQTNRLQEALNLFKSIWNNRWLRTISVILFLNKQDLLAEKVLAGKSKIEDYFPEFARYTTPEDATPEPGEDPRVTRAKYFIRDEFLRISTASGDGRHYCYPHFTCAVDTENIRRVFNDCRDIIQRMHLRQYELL

yeast GPA1 (yeast) = biological target: T1, yeast GPA1 (yeast) (UniProt P08539)
T1 sequence (looked up): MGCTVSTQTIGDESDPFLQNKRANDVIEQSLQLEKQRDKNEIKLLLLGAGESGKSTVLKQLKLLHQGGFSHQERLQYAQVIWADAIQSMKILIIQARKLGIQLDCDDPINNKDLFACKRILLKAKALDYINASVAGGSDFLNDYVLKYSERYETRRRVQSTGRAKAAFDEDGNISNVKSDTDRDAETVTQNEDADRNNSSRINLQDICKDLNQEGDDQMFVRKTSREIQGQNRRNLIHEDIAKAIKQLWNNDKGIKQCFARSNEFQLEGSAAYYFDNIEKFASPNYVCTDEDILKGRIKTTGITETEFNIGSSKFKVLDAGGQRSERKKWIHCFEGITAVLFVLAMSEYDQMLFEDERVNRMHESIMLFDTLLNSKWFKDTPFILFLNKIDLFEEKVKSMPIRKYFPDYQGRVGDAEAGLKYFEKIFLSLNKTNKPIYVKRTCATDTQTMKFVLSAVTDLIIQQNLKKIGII

Chain of human His6-Gαi2 (expressed in Sf9 cells) (human) (P04899 whole entry, the tested form may be a part): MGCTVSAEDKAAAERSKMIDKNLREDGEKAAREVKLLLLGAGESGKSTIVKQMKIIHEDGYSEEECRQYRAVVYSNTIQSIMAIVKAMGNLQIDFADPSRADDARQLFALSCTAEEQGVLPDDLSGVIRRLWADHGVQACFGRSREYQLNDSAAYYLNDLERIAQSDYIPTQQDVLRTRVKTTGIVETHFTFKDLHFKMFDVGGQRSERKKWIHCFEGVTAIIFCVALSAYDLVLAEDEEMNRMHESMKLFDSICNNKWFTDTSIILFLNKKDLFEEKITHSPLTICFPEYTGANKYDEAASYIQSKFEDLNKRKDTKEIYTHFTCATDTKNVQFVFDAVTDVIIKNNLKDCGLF

B1: GST-AGS1 (N-terminal GST fusion of AGS1, expressed in yeast from the CUP1 promoter on plasmid pYEX-4T1) (protein, not shown: a dimerising Fc or GST)
chain: MKLAAMIKKMCPSDSELSIPAKNCYRMVILGSSKVGKTAIVSRFLTGRFEDAYTPTIEDFHRKFYSIRGEVYQLDILDTSGNHPFPAMRRLSILTGDVFILVFSLDNRDSFEEVQRLRQQILDTKSCLKNKTKENVDVPLVICGNKGDRDFYREVDQREIEQLVGDDPQRCAYFEISAKKNSSLDQMFRALFAMAKLPSEMSPDLHRKVSVQYCDVLHKKALRNKKLLRAGSGGGGGDPGDAFGIVAPFARRPSVHSDLMYIREKASAGSQAKDKERCVIS
GTPγS binding to purified Gα (filter binding of GTPγ35S, 40 min) [1]: 25%

B2: AGS1 (Activator of G protein Signaling, human, 281 amino acids) (protein)
chain: B1 chain
β-galactosidase activity (FUS1p-lacZ reporter in yeast, AGS1, galactose) (relative β-galactosidase activity) [2]: 22.5 | β-galactosidase activity (FUS1p-lacZ reporter in yeast, AGS1, galactose) (relative β-galactosidase activity) [3]: 125 | β-galactosidase activity (FUS1p-lacZ reporter in yeast, AGS1, galactose) (relative β-galactosidase activity) [4]: 63.3 | β-galactosidase activity (FUS1p-lacZ reporter in yeast, AGS1, galactose) (relative β-galactosidase activity) (rat Gαs (rat)): 6.4 | β-galactosidase activity (FUS1p-lacZ reporter in yeast, AGS1, galactose) (relative β-galactosidase activity) (yeast GPA1 (yeast)): 7.6
